This series deals with alpha-PrP (prion protein, alpha form) (UniProt P04156). The series can be described thus: SPR. Conditions: PBS pH 7.0, room temperature.

One may read the Kd as the equilibrium constant for the complex coming apart. “GTTCGGCACTTGGGCCCTTTTCTGTGTCTTTCTGTGCCCTTAGATAGTATGTGCAATCA [CaAp-3]” came in with a dissociation constant Kd of 0.116 µM.

The values above are taken from patent US20100021899.
